Measured values: the supplement of paper PMC10724198
± gives the standard deviation of the averaged measurements.

Experiments:
Saccharomyces cerevisiae [1] = assay: protein stability index of tFT-peptide fusion (C-terminal peptide) (PSI (0-1 scale)); higher = more stable (slower turnover)
Method: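 MPS profiling in S. cerevisiae of the tFT-X12 degron library: putative degron peptides plus stable controls, 12 aa, fused to the C-terminus of a sfGFP-mCherry timer. Cells are FACS-sorted into 8 mCherry/sfGFP bins and deep-sequenced. PSI runs from 0 (unstable) to 1 (stable). Backgrounds are wild type, das1Δ and doa10Δ at 30 °C, and wild type, das1Δ, cdc34-1 and cdc53-1 at 37 °C; 2-3 technical replicates each.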

Saccharomyces cerevisiae [2] = assay: as above; details: genetic background: wild type; temperature: 30 C
[3] = genetic background: cdc34-1, temperature: 37 C
[4] = genetic background: cdc53-1, temperature: 37 C
[5] = genetic background: das1 deletion, temperature: 30 C
[6] = genetic background: das1 deletion, temperature: 37 C
[7] = genetic background: doa10 deletion, temperature: 30 C
[8] = genetic background: wild type, temperature: 30 C
[9] = genetic background: wild type, temperature: 37 C
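Note: PSI is a weighted mean of sequencing reads over stability bins, variants kept only with over 10 reads, mCherry proximal and sfGFP distal, peptide attached via GGGS linker.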

Row | Sequence | protein stability index (Saccharomyces cerevisiae [1]; [3]) | protein stability index (Saccharomyces cerevisiae [1]; [4]) | protein stability index (Saccharomyces cerevisiae [1]; [5]) | protein stability index (Saccharomyces cerevisiae [1]; [6]) | protein stability index (Saccharomyces cerevisiae [1]; [7]) | protein stability index (Saccharomyces cerevisiae [1]; [8]) | protein stability index (Saccharomyces cerevisiae [1]; [9]) | protein stability index (Saccharomyces cerevisiae [2])
1 | GTHWARLGWLLA | 0.607 ± 0.03 | 0.711 ± 0.036 | 0.619 ± 0.019 | 0.724 ± 0.022 | 0.161 ± 0.0026 | 0.176 ± 0.023 | 0.379 ± 0.033 | 0.227 ± 0.11
2 | LSLFCFFLLVLF | 0.203 ± 0.025 | 0.224 ± 0.021 | 0.272 ± 0.047 | 0.332 ± 0.011 | 0.305 ± 0.0094 | 0.206 ± 0.03 | 0.288 ± 0.0084 | 0.2279 ± 0.0013
3 | VVVLLLVVWFCL | 0.29 ± 0.014 | 0.4134 ± 0.0018 | 0.316 ± 0.027 | 0.428 ± 0.027 | 0.283 ± 0.0079 | 0.296 ± 0.025 | 0.391 ± 0.019 | 0.379 ± 0.04
4 | YHFRLLVTCCPC | 0.273 ± 0.0031 | 0.325 ± 0.0097 | 0.264 ± 0.016 | 0.38 ± 0.01 | 0.225 ± 0.0037 | 0.257 ± 0.0088 | 0.351 ± 0.015 | 0.321 ± 0.0033
5 | PPPYPPPPARSL | 0.6336 ± 0.00079 | 0.6951 ± 0.0027 | 0.673 ± 0.016 | 0.6884 ± 0.0056 | 0.6825 ± 0.0033 | 0.689 ± 0.022 | 0.6823 ± 0.0034 | 0.5 ± 0.014
6 | INGINHKIIKIV | 0.44 ± 0.025 | 0.721 ± 0.042 | 0.65 ± 0.036 | 0.72 ± 0.013 | 0.0842 ± 0.014 | 0.0896 ± 0.017 | 0.0909 ± 0.0048 | 0.155 ± 0.025
7 | KYCPCIPLLIAL | 0.406 ± 0.0064 | 0.381 ± 0.012 | 0.339 ± 0.036 | 0.5 ± 0.012 | 0.387 ± 0.013 | 0.329 ± 0.033 | 0.443 ± 0.012 | 0.429 ± 0.0047
8 | AASRVIYLLNLF | 0.653 ± 0.034 | 0.753 ± 0.008 | 0.6272 ± 0.0031 | 0.736 ± 0.027 | 0.197 ± 0.0028 | 0.232 ± 0.018 | 0.473 ± 0.027 | 0.3446 ± 0.0022
9 | GWMLVVWCGVFG | 0.174 ± 0.01 | 0.235 ± 0.0027 | 0.216 ± 0.035 | 0.338 ± 0.011 | 0.192 ± 0.011 | 0.195 ± 0.031 | 0.295 ± 0.0069 | 0.275 ± 0.03
10 | WVVVARIFSVFF | 0.484 ± 0.014 | 0.561 ± 0.02 | 0.445 ± 0.0061 | 0.57 ± 0.0013 | 0.308 ± 0.011 | 0.35 ± 0.018 | 0.469 ± 0.038 | 0.515 ± 0.12
11 | FCALWLCFRLMV | 0.35 ± 0.024 | 0.403 ± 0.014 | 0.319 ± 0.028 | 0.476 ± 0.03 | 0.14 ± 0.014 | 0.149 ± 0.017 | 0.265 ± 0.028 | 0.174 ± 0.037
12 | GALWVLGVVVGG | 0.461 ± 0.0066 | 0.505 ± 0.0085 | 0.365 ± 0.026 | 0.537 ± 0.0094 | 0.329 ± 0.012 | 0.364 ± 0.027 | 0.511 ± 0.013 | 0.467 ± 0.018
13 | FASVFCVVTGYV | 0.551 ± 0.037 | 0.611 ± 0.027 | 0.423 ± 0.018 | 0.597 ± 0.0062 | 0.406 ± 0.01 | 0.429 ± 0.013 | 0.58585 ± 7.1e-07 | 0.48 ± 0.072
14 | SLLFLVLFFPLV | 0.4885 ± 0.00069 | 0.524 ± 0.025 | 0.42 ± 0.034 | 0.55 ± 0.029 | 0.456 ± 0.019 | 0.43 ± 0.03 | 0.506 ± 0.0075 | 0.432 ± 0.023
15 | PILRGRPTPAIL | 0.691 ± 0.031 | 0.731 ± 0.013 | 0.662 ± 0.018 | 0.7426 ± 0.0046 | 0.681 ± 0.018 | 0.668 ± 0.023 | 0.7026 ± 0.0044 | 0.708 ± 0.021
16 | EMSIISVLRVIS | 0.61 ± 0.013 | 0.641 ± 0.017 | 0.489 ± 0.02 | 0.651 ± 0.021 | 0.181 ± 0.011 | 0.218 ± 0.034 | 0.395 ± 0.015 | 0.369 ± 0.035
17 | VCFWCLYVMFSL | 0.46 ± 0.043 | 0.494 ± 0.01 | 0.383 ± 0.019 | 0.463 ± 0.0068 | 0.372 ± 0.0057 | 0.363 ± 0.021 | 0.471 ± 0.022 | 0.418 ± 0.018
18 | FLSVGFSCSFVC | 0.674 ± 0.082 | 0.676 ± 0.034 | 0.599 ± 0.06 | 0.669 ± 0.04 | 0.375 ± 0.024 | 0.4115 ± 0.0017 | 0.609 ± 0.013 | 0.4939 ± 0.00094
19 | SLPCCKVVFCVI | 0.5166 ± 0.001 | 0.554 ± 0.023 | 0.417 ± 0.038 | 0.575 ± 0.01 | 0.332 ± 0.0048 | 0.355 ± 0.036 | 0.515 ± 0.015 | 0.4491 ± 0.003
20 | RLFYRLSFVYFL | 0.398 ± 0.025 | 0.4469 ± 0.0038 | 0.378 ± 0.029 | 0.514 ± 0.017 | 0.169 ± 0.0068 | 0.175 ± 0.016 | 0.243 ± 0.015 | 0.2655 ± 0.0014

Row | Sequence | protein stability index (Saccharomyces cerevisiae [1]; [3]) | protein stability index (Saccharomyces cerevisiae [1]; [4]) | protein stability index (Saccharomyces cerevisiae [1]; [5]) | protein stability index (Saccharomyces cerevisiae [1]; [6]) | protein stability index (Saccharomyces cerevisiae [1]; [7]) | protein stability index (Saccharomyces cerevisiae [1]; [8]) | protein stability index (Saccharomyces cerevisiae [1]; [9]) | protein stability index (Saccharomyces cerevisiae [2])
21 | RWPLVIRSLIVF | 0.196 ± 0.0088 | 0.226 ± 0.0098 | 0.251 ± 0.026 | 0.325 ± 0.019 | 0.214 ± 0.00073 | 0.22 ± 0.017 | 0.233 ± 0.01 | 0.2944 ± 0.0027
22 | PPSPPPPPPSPF | 0.695 ± 0.031 | 0.7371 ± 0.0055 | 0.683 ± 0.0043 | 0.7378 ± 0.0022 | 0.721 ± 0.031 | 0.679 ± 0.033 | 0.719 ± 0.034 | 0.304 ± 0.025
23 | CLAGALSWLRRG | 0.704 ± 0.034 | 0.7646 ± 0.006 | 0.662 ± 0.015 | 0.745 ± 0.022 | 0.637 ± 0.013 | 0.646 ± 0.019 | 0.703 ± 0.022 | 0.732 ± 0.018
24 | AGLLVLISWRLF | 0.0795 ± 0.014 | 0.213 ± 0.036 | 0.171 ± 0.029 | 0.337 ± 0.0065 | 0.124 ± 0.013 | 0.141 ± 0.019 | 0.223 ± 0.022 | 0.217 ± 0.036
25 | SGPCSPRNLRRL | 0.699 ± 0.032 | 0.754 ± 0.012 | 0.621 ± 0.017 | 0.736 ± 0.019 | 0.651 ± 0.015 | 0.647 ± 0.03 | 0.719 ± 0.02 | 0.281 ± 0.018
26 | SLIFLLVLILSL | 0.412 ± 0.023 | 0.51 ± 0.05 | 0.369 ± 0.038 | 0.493 ± 0.029 | 0.364 ± 0.048 | 0.347 ± 0.036 | 0.483 ± 0.046 | 0.363 ± 0.074
27 | EWFFCLGLFRFH | 0.567 ± 0.022 | 0.6045 ± 0.0057 | 0.472 ± 0.044 | 0.6152 ± 0.0061 | 0.208 ± 0.022 | 0.235 ± 0.025 | 0.433 ± 0.00045 | 0.369 ± 0.045
28 | GLSVFFFVGFIF | 0.38 ± 0.091 | 0.452 ± 0.033 | 0.339 ± 0.022 | 0.526 ± 0.021 | 0.306 ± 0.017 | 0.322 ± 0.02 | 0.521 ± 0.031 | 0.418 ± 0.047
29 | GLCFRVCIWVFV | 0.176 ± 0.0029 | 0.284 ± 0.024 | 0.206 ± 0.025 | 0.364 ± 0.0058 | 0.103 ± 0.016 | 0.125 ± 0.025 | 0.218 ± 0.0086 | 0.195 ± 0.041
30 | SRLLGVKVSLVC | 0.518 ± 0.025 | 0.567 ± 0.033 | 0.419 ± 0.031 | 0.581 ± 0.0085 | 0.35 ± 0.0097 | 0.384 ± 0.031 | 0.5364 ± 0.0038 | 0.472 ± 0.032
31 | VRLSQVNRLICT | 0.554 ± 0.022 | 0.566 ± 0.065 | 0.437 ± 0.024 | 0.585 ± 0.021 | 0.394 ± 0.019 | 0.426 ± 0.0098 | 0.573 ± 0.017 | 0.524 ± 0.052
32 | PPSPPLPPPSPF | 0.671 ± 0.013 | 0.773 ± 0.019 | 0.69 ± 0.0097 | 0.742 ± 0.041 | 0.694 ± 0.036 | 0.67 ± 0.018 | 0.707 ± 0.016 | 0.34 ± 0.046
33 | LVGLESCGERAG | 0.655 ± 0.00071 | 0.7436 ± 0.0018 | 0.644 ± 0.025 | 0.7308 ± 0.0011 | 0.643 ± 0.027 | 0.654 ± 0.0009 | 0.72 ± 0.024 | 0.69 ± 0.035
34 | LLGDFAVLTCVF | 0.468 ± 0.049 | 0.496 ± 0.039 | 0.372 ± 0.024 | 0.4825 ± 0.0011 | 0.343 ± 0.0054 | 0.377 ± 0.027 | 0.465 ± 0.022 | 0.453 ± 0.0086
35 | GLSLLLLWFKVC | 0.174 ± 0.0095 | 0.36 ± 0.0093 | 0.307 ± 0.027 | 0.463 ± 0.014 | 0.0902 ± 0.0054 | 0.104 ± 0.025 | 0.0839 ± 0.013 | 0.169 ± 0.017
36 | IFFFQFLWFCLS | 0.296 ± 0.0037 | 0.295 ± 0.0059 | 0.305 ± 0.036 | 0.4186 ± 0.0012 | 0.243 ± 0.0098 | 0.206 ± 0.028 | 0.339 ± 0.015 | 0.315 ± 0.038
37 | WAFVVCGAVFFW | 0.264 ± 0.025 | 0.358 ± 0.031 | 0.299 ± 0.014 | 0.466 ± 0.005 | 0.289 ± 0.024 | 0.282 ± 0.036 | 0.412 ± 0.022 | 0.358 ± 0.019
38 | VRINLLFVWFSR | 0.407 ± 0.0067 | 0.472 ± 0.028 | 0.331 ± 0.044 | 0.491 ± 0.012 | 0.359 ± 0.016 | 0.334 ± 0.04 | 0.464 ± 0.033 | 0.396 ± 0.026
39 | SSGIGLFVWVYG | 0.465 ± 0.0058 | 0.456 ± 0.015 | 0.282 ± 0.035 | 0.514 ± 0.013 | 0.226 ± 0.0051 | 0.268 ± 0.035 | 0.5023 ± 0.0012 | 0.421 ± 0.014
